This passage reports interaction score results from publication PMC10397247.

For one assay, the target named is T1, P12A-bA.
T1 chain: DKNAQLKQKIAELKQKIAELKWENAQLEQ
Kind of assay: two-hybrid library CCNG1.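 Note: natural log of median RNA to DNA barcode read ratio; higher means stronger binding.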

The next assay deals with T2, P3A-bA.
T2 chain: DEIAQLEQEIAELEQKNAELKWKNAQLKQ
Kind of assay: two-hybrid library CCNG1.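 Note: natural log of median RNA to DNA barcode read ratio; higher means stronger binding.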

Another assay concerns the target T3, P4A-bA.
T3 chain: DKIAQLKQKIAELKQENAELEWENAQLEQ
Kind of assay: two-hybrid library CCNG1.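 Note: natural log of median RNA to DNA barcode read ratio; higher means stronger binding.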

The next assay has as its target T4, P9A-bA.
T4 chain: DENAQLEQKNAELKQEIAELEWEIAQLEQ
Kind of assay: two-hybrid library CCNG1.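 Note: natural log of median RNA to DNA barcode read ratio; higher means stronger binding.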

Another assay concerns the target T5, P5A-bA.
T5 chain: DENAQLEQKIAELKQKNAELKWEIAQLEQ
In words: two-hybrid library CCNG1.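 Note: natural log of median RNA to DNA barcode read ratio; higher means stronger binding.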

A further assay has as its target T6, P8A-bA.
T6 chain: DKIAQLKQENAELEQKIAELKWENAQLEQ
In words: two-hybrid library CCNG1.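 Note: natural log of median RNA to DNA barcode read ratio; higher means stronger binding.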

A further assay addresses T7, P1A-bA.
T7 chain: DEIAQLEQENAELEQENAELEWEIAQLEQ
Kind of assay: two-hybrid library CCNG1.

A further assay concerns the target T8, P2A-bA.
T8 chain: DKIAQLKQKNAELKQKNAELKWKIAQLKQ
In words: two-hybrid library CCNG1.

Another assay addresses T9, P6A-bA.
T9 chain: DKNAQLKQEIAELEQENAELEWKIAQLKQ
In words: two-hybrid library CCNG1.

The next assay deals with T10, P7A-bA.
T10 chain: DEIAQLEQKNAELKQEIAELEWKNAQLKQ
In words: two-hybrid library CCNG1.

A further assay addresses T11, 4H2699-AA.
T11 chain: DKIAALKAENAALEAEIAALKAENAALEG
In words: two-hybrid library CCmax. The conditions noted are these: mean of both orientations.

A further assay concerns the target T12, 4H3782-AA.
T12 chain: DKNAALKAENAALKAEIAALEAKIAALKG
In words: two-hybrid library CCmax. The conditions noted are these: mean of both orientations.

For a further assay, the target named is T13, 4H341-AA.
T13 chain: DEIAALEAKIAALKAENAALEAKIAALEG
In words: two-hybrid library CCmax. The conditions noted are these: mean of both orientations.

The target of a further assay is T14, 4H3049-AA.
T14 chain: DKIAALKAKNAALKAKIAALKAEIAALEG
In words: two-hybrid library CCmax. The conditions noted are these: mean of both orientations.

For a further assay, the target named is T15, 4H380-AA.
T15 chain: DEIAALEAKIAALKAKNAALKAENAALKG
In words: two-hybrid library CCmax. The conditions noted are these: mean of both orientations.

The target of a further assay is T16, 4H1349-AA.
T16 chain: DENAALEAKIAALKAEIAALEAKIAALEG
In words: two-hybrid library CCmax. The settings on record: mean of both orientations.

The next assay addresses T17, 4H2621-AA.
T17 chain: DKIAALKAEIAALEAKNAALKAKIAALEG
In words: two-hybrid library CCmax. The conditions noted are these: mean of both orientations.

The next assay addresses T18, 4H3629-AA.
T18 chain: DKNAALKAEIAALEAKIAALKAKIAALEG
Kind of assay: two-hybrid library CCmax. The conditions noted are these: mean of both orientations.

A further assay has as its target T19, 4H2961-AA.
T19 chain: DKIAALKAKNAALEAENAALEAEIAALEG
Kind of assay: two-hybrid library CCmax.

The target in the next assay is T20, 4H3595-AA.
T20 chain: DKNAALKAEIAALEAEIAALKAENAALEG
Kind of assay: two-hybrid library CCmax. The conditions noted are these: mean of both orientations.

For another assay, the target named is T21, 4H249-AA.
T21 chain: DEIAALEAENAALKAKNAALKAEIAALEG
In words: two-hybrid library CCmax. The conditions noted are these: mean of both orientations.

The target of a further assay is T22, 4H3969-AA.
T22 chain: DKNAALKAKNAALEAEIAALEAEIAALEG
Kind of assay: two-hybrid library CCmax. The conditions noted are these: mean of both orientations.

In a further assay the target is T23, 4H1360-AA.
T23 chain: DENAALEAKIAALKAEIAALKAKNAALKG
In words: two-hybrid library CCmax. The conditions noted are these: mean of both orientations.

In a further assay the target is T24, 4H2774-AA.
T24 chain: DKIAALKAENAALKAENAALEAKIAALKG
Kind of assay: two-hybrid library CCmax. The conditions noted are these: mean of both orientations.

The target of a further assay is T25, 4H1558-AA.
T25 chain: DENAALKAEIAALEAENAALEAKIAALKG
In words: two-hybrid library CCmax. The conditions noted are these: mean of both orientations.

The next assay concerns the target T26, 4H2580-AA.
T26 chain: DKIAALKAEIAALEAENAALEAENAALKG
Kind of assay: two-hybrid library CCmax. The settings on record: mean of both orientations.

The target of a further assay is T27, 4H130-AA.
T27 chain: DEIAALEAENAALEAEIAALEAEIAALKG
In words: two-hybrid library CCmax.

Another assay addresses T28, 4H63-AA.
T28 chain: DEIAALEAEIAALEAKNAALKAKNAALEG
In words: two-hybrid library CCmax. The settings on record: mean of both orientations.

The target in another assay is T29, 4H1454-AA.
T29 chain: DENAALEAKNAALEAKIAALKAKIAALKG
In words: two-hybrid library CCmax. The settings on record: mean of both orientations.

For the next assay, the target named is T30, 4H3129-AA.
T30 chain: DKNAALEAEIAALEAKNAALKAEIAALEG
In words: two-hybrid library CCmax. The settings on record: mean of both orientations.

A further assay addresses T31, 4H446-AA.
T31 chain: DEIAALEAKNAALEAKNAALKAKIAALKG
In words: two-hybrid library CCmax. The conditions noted are these: mean of both orientations.

In the next assay the target is T32, 4H2728-AA.
T32 chain: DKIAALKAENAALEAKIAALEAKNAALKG
In words: two-hybrid library CCmax. The settings on record: mean of both orientations.

For another assay, the target named is T33, 4H464-AA.
T33 chain: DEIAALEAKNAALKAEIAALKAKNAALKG
In words: two-hybrid library CCmax. The conditions noted are these: mean of both orientations.

A further assay deals with T34, 4H3939-AA.
T34 chain: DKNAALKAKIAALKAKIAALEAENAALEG
Kind of assay: two-hybrid library CCmax. The settings on record: mean of both orientations.

A further assay deals with T35, 4H2903-AA.
T35 chain: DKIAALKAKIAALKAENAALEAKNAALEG
Kind of assay: two-hybrid library CCmax. The settings on record: mean of both orientations.

For another assay, the target named is T36, 4H1913-AA.
T36 chain: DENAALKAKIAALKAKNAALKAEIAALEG
Kind of assay: two-hybrid library CCmax. The conditions noted are these: mean of both orientations.

A further assay addresses T37, 4H483-AA.
T37 chain: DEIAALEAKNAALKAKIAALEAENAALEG
Kind of assay: two-hybrid library CCmax. The settings on record: mean of both orientations.

Another assay concerns the target T38, 4H3414-AA.
T38 chain: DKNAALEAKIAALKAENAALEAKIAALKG
In words: two-hybrid library CCmax. The conditions noted are these: mean of both orientations.

A further assay addresses T39, P11A-bA.
T39 chain: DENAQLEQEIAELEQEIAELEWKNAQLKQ
Kind of assay: two-hybrid library CCNG1.

In the case of DKNAQLKQKIAELKQKIAELKWENAQLEQ [P12A-bA], the interaction score with P12A-bA was -0.937; in the assay with P3A-bA, 0.536; in the assay with P4A-bA, -1.03; with P9A-bA, 0.0326; in the assay with P5A-bA, -1.16; in the assay with P8A-bA it was -1.32. For the same molecule, the interaction score was -0.14 with P1A-bA, -1.29 with P2A-bA, -0.314 with P6A-bA and -1.88 with P7A-bA.

On to DEIAALEAENAALEAEIAALEAEIAALKG [4H130-AA], for which the interaction score with 4H2699-AA is -0.46; in the assay with 4H3782-AA it was 1.3; with 4H341-AA it was 0.154; with 4H3049-AA it was 1.67; with 4H380-AA it was -0.0955; in the assay with 4H1349-AA, -0.443. The interaction score with 4H2621-AA was 0.962; with 4H3629-AA, 0.896; with 4H2961-AA, -0.589; in the assay with 4H3595-AA it was 0.698; in the assay with 4H249-AA, 1.18; with 4H3969-AA it was -0.404. Further, the interaction score with 4H1360-AA was 1.22; in the assay with 4H2774-AA it was 0.9; with 4H1558-AA it was -0.952; with 4H2580-AA, -1.46; in the assay with 4H130-AA it was 1.11; in the assay with 4H63-AA, -1.29. Moreover, the interaction score with 4H1454-AA is 1.52; with 4H3129-AA, -0.746; with 4H446-AA, 1.05; with 4H2728-AA, 0.54; in the assay with 4H464-AA it was 1.95; with 4H3939-AA it was 1.29. In addition, the interaction score is -1.15 in the assay with 4H2903-AA, 1.08 in the assay with 4H1913-AA, 0.0918 with 4H483-AA and 1 in the assay with 4H3414-AA.

With DKNAQLKQENAELEQKIAELKWKIAQLKQ [P10A-bA], the interaction score was 0.511 with P12A-bA; 0.562 with P3A-bA; 0.592 with P4A-bA; 0.318 with P5A-bA; -0.165 in the assay with P8A-bA; 0.776 in the assay with P1A-bA. The interaction score with P2A-bA was -0.362; with P6A-bA, -0.543; with P11A-bA, 0.99; with P7A-bA, 1.04.
